What was measured:
HLA-B*73:01 = test: IEDB peptide-MHC binding, purified MHC/direct/fluorescence; filed as Kd, often an IC50 or EC50 that approximates it; ≥ and ≤ were set here for values at or beyond the usual limits of such assays; conditions: source organism: Homo sapiens
HLA-A*32:07 = test: IEDB peptide-MHC binding, purified MHC/competitive/fluorescence; filed as Kd, often an IC50 or EC50 that approximates it; ≥ and ≤ were set here for values at or beyond the usual limits of such assays; conditions: source organism: Homo sapiens
HLA-B*15:42 = test: as above
HLA-B*45:06 = test: as above
HLA-B*83:01 = test: as above
HLA-A*01:01 = test: IEDB peptide-MHC binding, purified MHC/direct/fluorescence; filed as Kd, often an IC50 or EC50 that approximates it; ≥ and ≤ were set here for values at or beyond the usual limits of such assays
HLA-A*02:01 = test: as above
HLA-A*03:01 = test: as above
HLA-A*11:01 = test: as above
HLA-A*26:01 [1] = test: as above; conditions: source organism: Salmonella enterica
HLA-A*31:01 = test: as above
HLA-A*69:01 = test: as above
HLA-B*07:02 = test: as above
HLA-B*08:01 = test: as above
HLA-B*15:01 = test: as above
HLA-B*15:02 = test: as above
HLA-B*27:05 = test: as above
HLA-B*35:01 = test: as above; conditions: source organism: Salmonella enterica subsp. enterica serovar Typhimurium
HLA-B*40:01 = test: as above
HLA-B*44:02 = test: as above; conditions: source organism: Salmonella enterica
HLA-B*46:01 = test: as above
HLA-B*58:01 = test: as above
HLA-C*06:02 = test: as above; conditions: source organism: Yersinia pestis Nepal516
HLA-C*08:02 = test: as above; conditions: source organism: Yersinia pestis Nepal516
HLA-A*03:19 = test: IEDB peptide-MHC binding, purified MHC/competitive/fluorescence; filed as Kd, often an IC50 or EC50 that approximates it; ≥ and ≤ were set here for values at or beyond the usual limits of such assays; conditions: source organism: Yersinia pestis Nepal516
HLA-A*68:23 = test: as above; conditions: source organism: Yersinia pestis Nepal516
HLA-A*26:03 = test: IEDB peptide-MHC binding, purified MHC/direct/fluorescence; filed as Kd, often an IC50 or EC50 that approximates it; ≥ and ≤ were set here for values at or beyond the usual limits of such assays
HLA-A*68:02 = test: as above
HLA-B*08:03 = test: as above
HLA-B*15:09 = test: as above
HLA-B*15:17 = test: as above
HLA-B*48:01 = test: as above
HLA-B*57:01 = test: as above
HLA-A*26:01 [2] = test: IEDB peptide-MHC binding, purified MHC/competitive/fluorescence; filed as Kd, often an IC50 or EC50 that approximates it; ≥ and ≤ were set here for values at or beyond the usual limits of such assays; conditions: source organism: Variola virus
HLA-A*30:01 = test: as above
HLA-A*26:02 = test: IEDB peptide-MHC binding, purified MHC/direct/fluorescence; filed as Kd, often an IC50 or EC50 that approximates it; ≥ and ≤ were set here for values at or beyond the usual limits of such assays
HLA-B*39:01 = test: as above
HLA-C*12:03 = test: as above; conditions: source organism: Escherichia coli O157:H7 str. EDL933
HLA-B*08:02 = test: as above; conditions: source organism: Influenza B virus (B/Beijing/184/93)
HLA-B*18:01 = test: as above; conditions: source organism: Influenza A virus (A/quail/Hong Kong/FY298/00(H9N2))
[3] = source organism: Salmonella enterica
[4] = source organism: Salmonella enterica subsp. enterica serovar Typhimurium
[5] = source organism: Yersinia pestis
[6] = source organism: Yersinia pestis Nepal516
[7] = source organism: Escherichia coli O157:H7
[8] = source organism: Escherichia coli O157:H7 str. EC869
[9] = source organism: Influenza A virus (A/quail/Hong Kong/FY298/00(H9N2))
[10] = source organism: Influenza B virus (B/Beijing/184/93)

How did the Kd (HLA-B*73:01) turn out when MAWLFFWAI was run?
Its Kd is ≥ 20 µM.

And the Kd (HLA-A*32:07)?
The Kd was 3.39 µM.

What about the Kd (HLA-B*15:42; source organism: Homo sapiens) of the same sequence?
The Kd was ≥ 5 µM.

And the Kd (HLA-B*45:06; source organism: Homo sapiens)?
Its Kd is ≥ 5 µM.

And the Kd (HLA-B*83:01; source organism: Homo sapiens)?
The Kd was ≥ 5 µM.

With MQQSGDEAF as the sequence, how does the Kd (HLA-A*01:01; [3]) read?
The Kd was ≥ 20 µM.

What about the Kd (HLA-A*02:01; [3]) of the same sequence?
Its Kd is ≥ 20 µM.

And the Kd (HLA-A*03:01; [3])?
The Kd was ≥ 20 µM.

And the Kd (HLA-A*11:01; [3])?
The Kd was ≥ 20 µM.

And the Kd (HLA-A*26:01 [1])?
Its Kd is ≥ 20 µM.

What about the Kd (HLA-A*31:01; [3]) of the same sequence?
Its Kd is ≥ 20 µM.

And the Kd (HLA-A*69:01; [3])?
The Kd was ≥ 20 µM.

What about the Kd (HLA-B*07:02; [3]) of the same sequence?
Its Kd is ≥ 20 µM.

And the Kd (HLA-B*08:01; [3])?
The Kd was ≥ 20 µM.

And the Kd (HLA-B*15:01; [4])?
The Kd was 0.2 µM.

And the Kd (HLA-B*15:02; source organism: Salmonella enterica subsp. enterica serovar Typhimurium str. LT2)?
Its Kd is 0.032 µM.

And the Kd (HLA-B*27:05; [3])?
The Kd was ≥ 20 µM.

What about the Kd (HLA-B*35:01) of the same sequence?
Its Kd is 0.147 µM.

What about the Kd (HLA-B*40:01; [4]) of the same sequence?
The Kd was 1.01 µM.

What about the Kd (HLA-B*44:02) of the same sequence?
The Kd was ≥ 20 µM.

What about the Kd (HLA-B*46:01; [3]) of the same sequence?
Its Kd is ≥ 20 µM.

And the Kd (HLA-B*58:01; [3])?
Its Kd is ≥ 20 µM.

Which Kd (HLA-A*02:01; [5]) does the source give for TVYPKTHYV here?
Its Kd is 0.0415 µM.

What about the Kd (HLA-A*03:01; [5]) of the same sequence?
The Kd was 4.18 µM.

What about the Kd (HLA-A*11:01; [5]) of the same sequence?
Its Kd is 0.048 µM.

What about the Kd (HLA-A*31:01; [5]) of the same sequence?
The Kd was 0.178 µM.

What about the Kd (HLA-A*69:01; [5]) of the same sequence?
Its Kd is 0.0114 µM.

And the Kd (HLA-B*15:01; [5])?
Its Kd is 2.01 µM.

What about the Kd (HLA-B*58:01; [5]) of the same sequence?
Its Kd is 3.63 µM.

And the Kd (HLA-C*06:02)?
The Kd was 0.035 µM.

What about the Kd (HLA-C*08:02) of the same sequence?
The Kd was ≥ 20 µM.

What about the Kd (HLA-A*03:19) of the same sequence?
Its Kd is 0.201 µM.

And the Kd (HLA-A*68:23)?
The Kd was ≤ 0.0001 µM.

And the Kd (HLA-B*15:42; [6])?
The Kd was ≥ 5 µM.

What about the Kd (HLA-B*45:06; [6]) of the same sequence?
Its Kd is ≥ 5 µM.

What about the Kd (HLA-B*83:01; [6]) of the same sequence?
The Kd was ≥ 5 µM.

What does the source list for ILQDRIRMY?
Kd (HLA-A*01:01; source organism: Cowpox virus): ≥ 20 µM; Kd (HLA-A*02:01; source organism: Cowpox virus): ≥ 20 µM; Kd (HLA-A*11:01; source organism: Cowpox virus): ≥ 20 µM; Kd (HLA-A*26:03; source organism: Variola virus): ≥ 20 µM; Kd (HLA-A*31:01; source organism: Cowpox virus): ≥ 20 µM; Kd (HLA-A*68:02; source organism: Cowpox virus): ≥ 20 µM; Kd (HLA-A*69:01; source organism: Cowpox virus): ≥ 20 µM; Kd (HLA-B*07:02; source organism: Cowpox virus): ≥ 20 µM; Kd (HLA-B*08:01; source organism: Variola virus): ≥ 20 µM; Kd (HLA-B*08:03; source organism: Variola virus): ≥ 20 µM; Kd (HLA-B*15:01; source organism: Cowpox virus): 0.126 µM; Kd (HLA-B*15:02; source organism: Variola virus): 0.02 µM; Kd (HLA-B*15:09; source organism: Variola virus): ≥ 20 µM; Kd (HLA-B*15:17; source organism: Cowpox virus): 0.737 µM; Kd (HLA-B*27:05; source organism: Cowpox virus): ≥ 20 µM; Kd (HLA-B*46:01; source organism: Cowpox virus): ≥ 20 µM; Kd (HLA-B*48:01; source organism: Cowpox virus): ≥ 20 µM; Kd (HLA-B*57:01; source organism: Cowpox virus): ≥ 20 µM; Kd (HLA-B*58:01; source organism: Cowpox virus): ≥ 20 µM; Kd (HLA-A*26:01 [2]): ≥ 20 µM; Kd (HLA-A*30:01; source organism: Variola virus): ≥ 20 µM

How did the Kd (HLA-A*01:01; [7]) turn out when YQAFRTKVH was run?
The Kd was ≥ 20 µM.

What about the Kd (HLA-A*02:01; [7]) of the same sequence?
The Kd was ≥ 20 µM.

What about the Kd (HLA-A*03:01; [7]) of the same sequence?
The Kd was ≥ 20 µM.

What about the Kd (HLA-A*11:01; [7]) of the same sequence?
Its Kd is ≥ 20 µM.

What about the Kd (HLA-A*26:02; [8]) of the same sequence?
Its Kd is ≥ 20 µM.

What about the Kd (HLA-A*31:01; [7]) of the same sequence?
The Kd was ≥ 20 µM.

What about the Kd (HLA-A*68:02; [7]) of the same sequence?
The Kd was ≥ 20 µM.

And the Kd (HLA-A*69:01; [7])?
The Kd was ≥ 20 µM.

And the Kd (HLA-B*07:02; [7])?
Its Kd is ≥ 20 µM.

And the Kd (HLA-B*08:01; [8])?
The Kd was ≥ 20 µM.

What about the Kd (HLA-B*08:03; [8]) of the same sequence?
Its Kd is ≥ 20 µM.

What about the Kd (HLA-B*15:01; [7]) of the same sequence?
Its Kd is 0.01 µM.

What about the Kd (HLA-B*15:02; [7]) of the same sequence?
The Kd was ≥ 20 µM.

What about the Kd (HLA-B*15:09; [8]) of the same sequence?
The Kd was ≥ 20 µM.

And the Kd (HLA-B*15:17; [7])?
Its Kd is ≥ 20 µM.

What about the Kd (HLA-B*27:05; [7]) of the same sequence?
Its Kd is ≥ 20 µM.

What about the Kd (HLA-B*39:01; [8]) of the same sequence?
Its Kd is ≥ 20 µM.

And the Kd (HLA-B*46:01; [7])?
The Kd was ≥ 20 µM.

And the Kd (HLA-B*48:01; [7])?
The Kd was ≥ 20 µM.

What about the Kd (HLA-B*57:01; [7]) of the same sequence?
Its Kd is ≥ 20 µM.

What about the Kd (HLA-B*58:01; [7]) of the same sequence?
The Kd was ≥ 20 µM.

What about the Kd (HLA-C*12:03) of the same sequence?
Its Kd is 0.204 µM.

And the Kd (HLA-A*30:01; source organism: Escherichia coli O157:H7 str. EDL933)?
The Kd was ≥ 20 µM.

Which results are given for TKDAERGKL?
Kd (HLA-A*01:01; [9]): ≥ 20 µM; Kd (HLA-A*02:01; [9]): ≥ 20 µM; Kd (HLA-A*03:01; [9]): ≥ 20 µM; Kd (HLA-A*26:02; [10]): ≥ 20 µM; Kd (HLA-A*26:03; [10]): ≥ 20 µM; Kd (HLA-A*68:02; [9]): ≥ 20 µM; Kd (HLA-A*69:01; [9]): ≥ 20 µM; Kd (HLA-B*07:02; [9]): ≥ 20 µM; Kd (HLA-B*08:01; [10]): ≥ 20 µM; Kd (HLA-B*08:02): ≥ 20 µM; Kd (HLA-B*15:01; [9]): ≥ 20 µM; Kd (HLA-B*15:09; [10]): ≥ 10 µM; Kd (HLA-B*15:17; [9]): ≥ 20 µM; Kd (HLA-B*18:01): ≥ 20 µM; Kd (HLA-B*27:05; [9]): ≥ 20 µM; Kd (HLA-B*39:01; [9]): ≥ 20 µM; Kd (HLA-B*40:01; [9]): ≥ 20 µM; Kd (HLA-B*46:01; [9]): ≥ 20 µM; Kd (HLA-B*48:01; [9]): ≥ 20 µM; Kd (HLA-B*57:01; [9]): ≥ 20 µM; Kd (HLA-B*58:01; [9]): ≥ 20 µM
